Where two headings read alike, the source gives them in different places. Blank lines part the entries; values can stand above or below the binder they belong to. Bridge positions count the residues as written; N and C are the ends. Square brackets hold non-standard residues; d marks the D form. Ends that are not written are not given here. Pen = CC(C)(S)[C@H](N)C(=O)O; NMeA = CN[C@@H](C)C(=O)O
Key:
[1] = molecular target: T1, soluble human FcRn (human, UniProt P55899 24-297; P61769 21-119, biotinylated (Sulfo-NHS-LC-Biotin) in the ELISA; amine-coupled to CM5 chip in SPR); test: ELISA, competitor human IgG
T1 construct: also called shFcRn; biotinylated shFcRn
Experimental: (§1) The wells were coated with 100 μl/well of 1 μg/ml biotinylated-shFcRn in Buffer A. The plate was sealed and incubated at 37° C. for 2 hours. Afterwards, the plate washed with 200 μl/well of Buffer B (Buffer B: 100 mM MES pH 6, 150 mM NaCl, 0.5% BSA IgG-free (Jackson ImmunoResearch, West Grove, Pa.), 0.05% Tween-20). […] To allow for mixing, the plate was rocked for 2 minutes, sealed and incubated at 37° C. for 2 hours. […] The plate was covered, incubated for 30 minutes at room temperature and washed 4 times with 200 μl/well of ice-cold buffer B. SureBlue TMB substrate solution (100 μl/well, KPL, Gaithersburg, Md.) was added and the plate was allowed to incubate at room temperature until color developed, which took 5 to 10 minutes. Once color developed, 100 μl/well of TMB stop solution (KPL, Gaithersburg, Md.) was added and the absorbance was measured at 450 nm. The data was plotted as absorbance vs. peptide concentration to derive the inhibitory concentration 50% (IC₅₀) values.

[2] = molecular target: T1, soluble human FcRn; test: ELISA, competitor human IgG; remark: listed apart in the source
Experimental: as §1

[3] = molecular target: T1, soluble human FcRn; test: SPR, pH 6
Experimental: (§2) The following steps were performed to cross-link soluble human or cynomolgus FcRn to the dextran surface of a CM5 sensor chip (Biacore AB, Uppsala, Sweden) by an amine coupling reaction involving 1-ethyl-(3-dimethylaminopropyl)-carbodiimide hydrochloride (EDC) (Biacore AB, Uppsala, Sweden) and N-hydroxysuccinimide (NHS) (Biacore AB, Uppsala, Sweden) as recommended by Biacore (BIAapplications Handbook, version AB, section 4.2, Biacore AB, Uppsala, Sweden). […] Residual sites on the FcRn flow cell were blocked with 1 M ethanolamine hydrochloride pH 8.5 (Biacore AB, Uppsala, Sweden). A control flow cell was blocked with ethanolamine for reference subtraction. For analysis of the monomeric peptides, FcRn was coated to a final density of 4000-5000 response units (RU). For analysis of the peptide dimers, FcRn was coated to a density of 2000-2500 RU. All SPR measurements were performed using a BIACORE 3000 Instrument (Biacore AB Uppsala, Sweden). For measurements done at either pH 6 or pH 7.4, experiments were performed in 50 mM phosphate, 100 mM sodium chloride, 0.01% surfactant P20 (Biacore AB, Uppsala, Sweden).
(§3) Ten, 2-fold dilutions of the peptide were injected over the FcRn-CM5 chip at a rate of 20 μl/min for 2 min. The peptide was dissociated from the chip for 2.5 minutes with buffer. Any remaining peptide was removed from the chip with a 30 second injection of HBS-P buffer (Biacore AB, Uppsala, Sweden) at a rate of 30 μl/min. Sensorgrams were generated and analyzed using BiaEval software version 3.1 (Biacore AB, Uppsala, Sweden). The equilibrium RU observed for each injection was plotted against concentration. The equilibrium KD values were derived by analysis of the plots using the steady state affinity model included in the BiaEval software.

[4] = molecular target: T1, soluble human FcRn; test: SPR, pH 6; remark: listed apart in the source
Experimental: as §2, §3

[5] = molecular target: T1, soluble human FcRn; test: SPR, pH 6; remark: listed apart in the source
Experimental: as §2, §3

[6] = molecular target: T1, soluble human FcRn; test: ELISA, competitor human IgG; remark: listed apart in the source
Experimental: as §1

[7] = molecular target: T1, soluble human FcRn; test: SPR, pH 6; remark: listed apart in the source
Experimental: as §2, §3

[8] = molecular target: T1, soluble human FcRn; test: ELISA, competitor human IgG; remark: listed apart in the source
[9] = molecular target: T1, soluble human FcRn; test: SPR, pH 6; remark: listed apart in the source
[10] = molecular target: T1, soluble human FcRn; test: ELISA, competitor human IgG; remark: listed apart in the source
Experimental: as §1

[11] = molecular target: T1, soluble human FcRn; test: SPR, pH 7.4
Experimental: as §2, §3

[12] = molecular target: T1, soluble human FcRn; test: SPR, pH 6; remark: listed apart in the source
Experimental: as §2, §3

[13] = molecular target: T1, soluble human FcRn; test: ELISA, competitor human IgG; remark: listed apart in the source
Experimental: as §1

[14] = molecular target: T1, soluble human FcRn; test: SPR, pH 6; remark: listed apart in the source
Experimental: as §2, §3

IC50 [2]: 1.6 µM
Kd [3]: 0.28 µM
Binder: QRFXTGHFGPLYPXNGP (Pen at 4 and 14; D-Pro at 10; disulfide; C-terminal amide) [Peptide No. 295]

Kd [4]: 4.8 µM
IC50 [6]: 71 µM
Binder: RFXTGHFTGLYPC (Pen at 3; D-Thr at 8; Sar at 9; NMeLeu at 10; disulfide; C-terminal amide) [Peptide No. 240]

Kd [4]: 2.1 µM
IC50 [6]: 29 µM
Binder: RFXTGHFNGLYPC (Pen at 3; D-Asn at 8; Sar at 9; NMeLeu at 10; disulfide; C-terminal amide) [Peptide No. 243]

Kd [4]: 1.4 µM
Binder: RFXTGHFFGLYPC (Pen at 3; D-Phe at 8; Sar at 9; NMeLeu at 10; disulfide; C-terminal amide) [Peptide No. 217]

Kd [4]: 0.58 µM
IC50 [6]: 6.4 µM
Binder: RFXTGHFEGLYPC (Pen at 3; D-Glu at 8; Sar at 9; NMeLeu at 10; disulfide; C-terminal amide) [Peptide No. 244]

Kd [4]: 0.47 µM
IC50 [6]: 4 µM
Binder: RFXTGHFLGLYPC (Pen at 3; D-Leu at 8; Sar at 9; NMeLeu at 10; disulfide; C-terminal amide) [Peptide No. 219]

IC50 [6]: > 50 µM
Binder: RFXTGHFVGLYPC (Pen at 3; D-Val at 8; Sar at 9; NMeLeu at 10; disulfide; C-terminal amide) [Peptide No. 218]

IC50 [10]: 1.4 µM
Kd [11]: 1.1 µM
Binder: QRFXTGHFGPLYPCNGP (Pen at 4; D-Pro at 10; disulfide; C-terminal amide) [Peptide No. 40]

IC50 [10]: 18 µM
Kd [11]: 41 µM
Binder: QRFXTGHFGILYPCNGP (Pen at 4; D-Ile at 10; disulfide; C-terminal amide) [Peptide No. 43]

Kd [11]: 100 µM
Kd [12]: 1.7 µM
Binder: QRFXTGHFGFLYPCNGP (Pen at 4; D-Phe at 10; disulfide; C-terminal amide) [Peptide No. 44]

Kd [11]: 4.9 µM
Kd [12]: 0.58 µM
Binder: QRFXTGHFDGLYPCNGP (Pen at 4; D-Asp at 9; disulfide; C-terminal amide) [Peptide No. 47]

Kd [3]: 2.1 µM
Binder: QRFXTGHFGGLYPXNGP (hC at 4; Pen at 14; disulfide; C-terminal amide) [Peptide No. 70]

IC50 [1]: > 125 µM
Kd [5]: 92 µM
Binder: QRFXTGHFGGLYPCNGP (Pen at 4; NMeTyr at 12; disulfide; C-terminal amide) [Peptide No. 114]

Kd [7]: 180 µM
Binder: QRFXTGHFGGLXPCNGP (Pen at 4; 4-nitro-Phe at 12; disulfide; C-terminal amide) [Peptide No. 68]

IC50 [8]: > 125 µM
Kd [9]: 230 µM
Binder: QRFSTGHFGGLYPSNGP-NH2 [Peptide No. 71]

IC50 [1]: 169 µM
Kd [5]: 18 µM
Binder: QRFC[NMeA]GHFGGLYPCNGP-NH2 (disulfide 4-14 (inferred)) [Peptide No. 196]

IC50 [13]: 30 µM
Kd [14]: 8 µM
Binder: QRFCTGHFGGLYPCAGP-NH2 (disulfide 4-14 (inferred)) [SEQ ID NO:36]

IC50 [13]: 30 µM
Kd [14]: 4.9 µM
Binder: QRFCAGHFGGLYPCNGP-NH2 (disulfide 4-14 (inferred)) [SEQ ID NO:27]

IC50 [2]: 2 µM
Binder: QRFXTGHFGGLYPXNGP (Pen at 4; hC at 14; disulfide; C-terminal amide) [Peptide No. 69]

IC50 [2]: 2 µM
Kd [3]: 0.37 µM
Binder: QRFXTGHFGGLYPXNGP (Pen at 4 and 14; disulfide; C-terminal amide) [Peptide No. 34]

Second part, the binder before the results:

Binder: QRFXTGHFGGLYPCNGP (Pen at 4; Sar at 10; disulfide; C-terminal amide) [Peptide No. 112]
IC50 [1]: 0.9 µM

Binder: QRFXTGHFGGLYPXNGP (hC at 4 and 14; disulfide; C-terminal amide) [Peptide No. 28]
IC50 [2]: 20 µM
Kd [3]: 3.8 µM

Binder: RFXTGHFGGLYPC (Pen at 3; Sar at 9; NMeLeu at 10; disulfide; C-terminal amide) [Peptide No. 235]
Kd [4]: 0.031 µM
Kd [5]: 0.031 µM

Binder: RFXTGHFSGLYPC (Pen at 3; D-Ser at 8; Sar at 9; NMeLeu at 10; disulfide; C-terminal amide) [Peptide No. 241]
Kd [4]: 1.1 µM
IC50 [6]: 23 µM

Binder: QRF[dC]TGHFGGLYPCNGP-NH2 (disulfide 4-14 (inferred)) [Peptide No. 29]
IC50 [2]: > 125 µM

Binder: QRFXTGHFGGLXPCNGP (Pen at 4; pentafluoroPhe at 12; disulfide; C-terminal amide) [Peptide No. 65]
Kd [7]: 72 µM

B1: Peptide No. 169 (peptide)
peptide: QRFVTGHFG[dP]LYPINGP-NH2
modifications: N-terminus assumed
SMILES: CC[C@H](C)[C@H](NC(=O)[C@@H]1CCCN1C(=O)[C@H](Cc1ccc(O)cc1)NC(=O)[C@H](CC(C)C)NC(=O)[C@H]1CCCN1C(=O)CNC(=O)[C@H](Cc1ccccc1)NC(=O)[C@H](Cc1c[nH]cn1)NC(=O)CNC(=O)[C@@H](NC(=O)[C@@H](NC(=O)[C@H](Cc1ccccc1)NC(=O)[C@H](CCCNC(=N)N)NC(=O)[C@@H](N)CCC(N)=O)C(C)C)[C@@H](C)O)C(=O)N[C@@H](CC(N)=O)C(=O)NCC(=O)N1CCC[C@H]1C(N)=O
IC50 [8]: 72 µM
Kd [9]: 15 µM

Binder: QRFXTGHFGGLXPCNGP (Pen at 4; 2-nitro-Tyr at 12; disulfide; C-terminal amide) [Peptide No. 87]
Kd [7]: 290 µM

Binder: QRFXTGHFGHLYPCNGP (Pen at 4; D-His at 10; disulfide; C-terminal amide) [Peptide No. 42]
Kd [11]: 20 µM
Kd [12]: 2 µM

B2: Peptide No. 41 (peptide)
peptide: QRF[Pen]TGHFG[dR]LYPCNGP-NH2
modifications: disulfide 4-14; N-terminus assumed
SMILES: CC(C)C[C@@H]1NC(=O)[C@@H](CCCNC(=N)N)NC(=O)CNC(=O)[C@H](Cc2ccccc2)NC(=O)[C@H](Cc2c[nH]cn2)NC(=O)CNC(=O)[C@H]([C@@H](C)O)NC(=O)[C@@H](NC(=O)[C@H](Cc2ccccc2)NC(=O)[C@H](CCCNC(=N)N)NC(=O)[C@@H](N)CCC(N)=O)C(C)(C)SSC[C@@H](C(=O)N[C@@H](CC(N)=O)C(=O)NCC(=O)N2CCC[C@H]2C(N)=O)NC(=O)[C@@H]2CCCN2C(=O)[C@H](Cc2ccc(O)cc2)NC1=O
IC50 [10]: 8.1 µM
Kd [11]: 8.8 µM
Kd [12]: 0.83 µM

Binder: QRFXTGHFGGLYPCNGP (Pen at 4; NMeLeu at 11; disulfide; C-terminal amide) [Peptide No. 113]
IC50 [1]: 1.6 µM
Kd [5]: 0.086 µM

Binder: QRFCTGHFGGLFPCNGP-NH2 (disulfide 4-14 (inferred)) [Peptide No. 26]
Kd [7]: 230 µM

Binder: QRACTGHFGGLYPCNGP-NH2 (disulfide 4-14 (inferred)) [SEQ ID NO:26]
IC50 [13]: 95 µM
Kd [14]: 28 µM

Binder: QAFCTGHFGGLYPCNGP-NH2 (disulfide 4-14 (inferred)) [SEQ ID NO:25]
IC50 [13]: 23 µM
Kd [14]: 7.7 µM

Binder: QRFXTGHFGXLYPCNGP (Pen at 4; Aib (aminoisobutyric acid) at 10; disulfide; C-terminal amide) [Peptide No. 46]
IC50 [10]: 2.4 µM
Kd [11]: 5.3 µM
Kd [12]: 0.48 µM

Binder: QRFCTGHFGGLYPXNGP (hC (L-homocysteine) at 14; disulfide; C-terminal amide) [Peptide No. 27]
IC50 [2]: 21 µM
Kd [3]: 3.9 µM

Binder: QRFXTGHFGGLYPCNGP (Pen at 4; Sar at 6; disulfide; C-terminal amide) [Peptide No. 108]
IC50 [1]: > 125 µM
